Laboratory results published in patent US20210292412A1 (CHENGDU CONMED BIOSCIENCES, published 2021).

Biological target: T1, human CD47 on CCRF-CEM cells (CD47 positive cells) (human, UniProt Q08722 19-323)
T1 construct: whole, on cells; also called hCD47-expressing tumor cells CCRF-CEM; CD47 receptor on the cell surface
Experiment: CD47-SIRPα blocking experiment, FIG. 5 legend

binding result: binds
B1: hybridoma positive clone 10B8 (antibody, V domains shown)
VH: QIQLQQSGPDLVKPGASVKISCKASGYTFTDYYIHWMKQKPGQGLEWIGWIYPGSGNTKYNEKFKGKATLTVDTSSSTPYMQLSSLTSEDTAVYFCARRREDSFDYWGQVTTLTVSS
VL: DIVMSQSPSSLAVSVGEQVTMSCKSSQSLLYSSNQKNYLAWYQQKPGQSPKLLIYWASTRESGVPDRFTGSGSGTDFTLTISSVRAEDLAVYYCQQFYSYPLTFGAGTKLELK
notes: Mouse hybridoma supernatant in the assay; Variable regions are printed for subclone 10B8-B8; also called Clone 10B8-B8
